Positions count from the first letter of the chain named.
B1: Nb41 (VHH)
VHH: DVQLVESGGGLVQAGGSLRLSCAASGFTFSNYVMYWGRQAPGKGREWVSGIDSDGSDTAYASSVKGRFTISRDNAKKTLYLQMNDLKPEDTALYYCVKSKDRYGSPWTRSEFEDYWGQGTQVTVSS
B2: Nb24 (VHH)
VHH: QVQLVESGGGLVQAGGSLRLTCAASGGTFSTSTMDMGWFRQAPGKEREFVALDSWNGGRTYYADSVKGRFTISRDNAKNTLYLQMNSLKPEDTAVYYCAADTYSNYEKDDSWGYWGQGTQVTVSS
B3: Nb26 (VHH)
VHH: B2 VHH with Q1H, G27R, T31I, L52A, S54A, G57D, A99T, E107K
B4: Nb28 (VHH)
VHH: B2 VHH with Q1H, T21S, G27R, A51G, L52A, G57D, S87N, D101E, N105L, D109S
B5: Nb29 (VHH)
VHH: B2 VHH with Q1H, L52V, G57D, T60A, D101E, D109A, D110Y
B6: Nb32 (VHH)
VHH: DVQLVESGGGLVQAGGSLRLSCAASGRTFSSDTMDMGWFRQAPGKEREFVALHSWNGGKTYYADSVKGRFTISRDNAKNTLYLQMNNLKPEDTAVYYCAAETYTLYEKDSSWGYWGQGTQVTVSS
B7: Nb2 (VHH)
VHH: QVQLVESGGGLVQAGGSLRLSCAASGRTFSIYNMGWFRQAPGKEREFVIHMNWSNGNTATAASVKDRFTISRDNAKNTVYLQMSSLKPEDTAVYYCHATTNDYDYWGQGTQVTVSS
B8: Nb15 (VHH)
VHH: EVQLVESGGGLVAAGGSLRLSCVPSTNIFSANAMGWYRQAPGKQRELVASITSGGNTNYADSVKGRFTISRDNADTVILQMNSLKPEDTAVYYCKGTAYSTTYNSVRDYWGQGTQVTVSS
B9: Nb16 (VHH)
VHH: DVQLVESGGGLVQAGESLRLSCAASGDMFSSNAMAWYRQAPGKQRELVASITSGGNTNYADSVKGRFTISRDNAKNTVYLQMDSLKPEDTAVYYCNGVAYDYSWGRPRNFWGQGTQVTVSS
B10: Nb18 (VHH)
VHH: DVQLVESGGGLVQAGGSLRLSCAASGRTFSSYNVGWFRQAPGKEREFVAFIRWSGTSTYYADSVKGRFTISRDNAKNTVYLQMNSLKPEDTAVYYCAATSRTMIHTSQAMPINWDYWGQGTQVTVSS
B11: Nb84 (VHH)
VHH: B10 VHH with N33S, V34M, E89D, T99S, I104N, H105T, T106I, A109T, P111R
B12: Nb100 (VHH)
VHH: B10 VHH with D1E, R27L, V34M, N74T, P88L, A109T, P111R
B13: Nb3 (VHH)
VHH: HVQLVESGGGLVQAGGSLRLSCVASGSGFEPNAMGWYRQAPGKQRELVAGITSGGNTNYADSVKGRFTISRDNVKNTVYLQMNSLKPEDTAVYYCNAVAPRINPRGSPTNYWGQGTQVTVSS
B14: Nb4 (VHH)
VHH: B13 VHH with H1Q, T57A, A99G, I102F
B15: Nb37 (VHH)
VHH: QVQLVESGGGLVQTGGSLRLSCAASGRTFSNYVMGWFRQAPGKEREFVSSIEWNSENTFYANSVKGRFTISRDNAKNTVYLQMNSLKAEDTAVYYCAADRGSSYYYTRASEYTYWGQGTQVTVSS
B16: Nb39 (VHH)
VHH: QVQLVESGGGLVQAGGSLRLSCAASGRTFRFSAIDWYRQAPGQQREFVASISTSGRISYGHFVKGRFTISRDNAKNTMYLQMNSLKPEDTAVYYCHLAQPDVFGGGDYWGQGTQVTVSS
B17: Nb42 (VHH)
VHH: HVQLVESGGGLVQAGESLRLSCVASGSIFSINAMGWFRQAPGKQRELVASISNIGTTIYAESVKGRFTISRDNAKNTADLQMNSLKPEDTAIYYCNLRQGCSYNGCDEYWGQGTQVTVSS
B18: Nb43 (VHH)
VHH: EVQLVESGGGLVQAGGSLRLTCAASGRTFSSSTMDMGWFRQAPGKEREFVAVDAWNDGRTYYADSVKGRFTISRDNAKNTLYLQMNSLKPEDTAIYYCNLRQGCSYNGCDEYWGQGTQVTVSS
B19: Nb46 (VHH)
VHH: QVQLVESGGGLVQAGGSLRLSCAVSGSTLGINAIGWYRQPPGKQRELVASISSLGTTLYAESVKGRFAISRDNAKNTGYLQMNSLKPDDTAVYYCNMRTPYMRDYWGQGTQVTVSS
B20: Nb48 (VHH)
VHH: HVQLVESGGGLVQAGGSLRLSCAASGSIFRHYNMGWFRQAPGKEREFVSAISWTNIGTYYADSVKGRFSISRDNNRNTAYLEMNSLKPEDTAVYYCAADRSEFGSRLYSDENEYDYWGQGTQVTVSS
B21: Nb55 (VHH)
VHH: DVQLVESGGGLVQAGGSLRLSCAASGRTFGSTMAWFRQAPGKERDFVAAITWSADRISYADSVKGRFTISRDNDKNIVHLQMNSLKPEDTAVYVCAARASSNTYDDPRSFAFWGQGTQVTVSS
B22: Nb58 (VHH)
VHH: QVQLVESGGGLVQAGGSLRLSCAASGRDFSSTVMGWFRQAPGKERELVAWMTVTYDITYYADSVKGRFTISKDNAKNTVYLQANSLKPDDTAVYYCASGALRVGSFSPDYWGQGTQVTVSS
B23: Nb60 (VHH)
VHH: HVQLVESGGGLVQAGDSLRLSCAASERTNINYAMGWFRQAPGKERDFVAAIGWNGSIIKYAESVKGRFTISRDDAKNTVSLQMNSLKPEDTAVYYCAARIGSIANLQPREYEFAYWGQGTQVTVSS
B24: Nb62 (VHH)
VHH: HVQLVESGGGLVQAGGSLRLTCAASGRTFSSSTMDMGWFRQAPGKEREFVAVDAWNDGRTYYADSVKGRFTISRDNAKNTLYLQMNSLKPGDTAVYYCHAVDVSVGGDYWGQGTQVTVSS
B25: Nb63 (VHH)
VHH: QVQLVESGGGLVQAGGSLRLSCVASGSGFEPNAMGWYRQAPGKQRELVAGITSGGNANYADSVKGRFTISRDNVKNTVYLQMNSLKPEDTAVYYCQGPACSGSGCRNYWGQGTQVTVSS
B26: Nb64 (VHH)
VHH: QVQLVESGGGLVQAGGSLRLSCAVSGRTFSIAGMGWFRQAPGKDREFLGGITWNDGTTWYADSVKGRFTISRDNAKNMLSLRMNSLKPEDTAVYYCAAGPRLGSTPRAYDYWGQGTQVTVSS
B27: Nb66 (VHH)
VHH: HVQLVESGGGLVQAGGSLRLSCAASGRTFSVNSIAWFRQAPGKEREFVATINWSGGDIYYADSVKGRFTISRDNGKNTVYLQMNSLKPTDTAVYYCAAARFYGRSIAQDYDSWGQGTQVTVSS
B28: Nb68 (VHH)
VHH: QVQLVESGGGLVQAGGSLRLSCAASGGTLRSYNMGWFRQGPGKEREFVAAISWTGLGTYYGDSVKGRFTISRDVIKNTLYLQMDSLKPEDTAIYYCAADSSTSRLHSAGSDYRYWGQGTQVTVSS
B29: Nb74 (VHH)
VHH: HVQLVESGGGLVQAGGSLRLSCAASGRTFSSHAMAWFRQAPGKEREFVAGISWSGPYYVDSVKGRFTISTDNAKNTVYLQMNSLTPEDTAVYYCASSRGPNLYPHIGDVEYWGQGTQVTVSS
B30: Nb76 (VHH)
VHH: DVQLVESGGGLVQAGGSLRLSCAVSGRTFSISTMGWFRQAPGKERLFVAGITWHDGSTNYADSVKGRFTISRDNAKNTVYLQMNSLKPEDTALYYCAARKSINYVQEYDYWGRGTQVTVSS
B31: Nb11 (VHH)
VHH: HVQLVESGGGLVQAGGSLRLSCAVSGASAERVGWFRRAPGKEREFVAAIGANGGSTNYLDSVKGRFTISRDNAKNTVYLQMNSLKPQDTAVYYCAARNLETFDYTYWGRGTQVTVSS
B32: Nb78 (VHH)
VHH: B31 VHH with H1Q, V24I, E30N, N52S, S55M, L99I, F102A, D103E, R109Q
B33: Nb80 (VHH)
VHH: HVQLVESGGGLVQPGGSLRLSCAASGNFFLINVMSWWRQAPGNEHELHELVATITSDGRTNYGDAVQGRFTISRDNAKNTLYLQMNSLKPEDTAVYYCYAQGQGNREYWGQGTQVTVSS
B34: Nb6 (VHH)
VHH: HVQLVESGGGLVQAGGSLRLSCAASGRTFSTHATGWFRQAPGKEREFLATSVWLDDISRDSTYYAESVKGRFSISRDNAKDTVYLQMNSLKPEDTAVYYCAVKQRVGPGIMSAPTYDYWGQGTQVTVSS
B35: Nb82 (VHH)
VHH: DVQLVESGGGLVQAGGSLGLSCAASGSIFRLTAMGWYRQAPGKQRDLVTTITSAGIPHYADSVKGRFTISRDNAKNTVYLQMNGLKPEDTAVYYCYANTLNSQLLPRAYWGQGTQVTVSS
B36: Nb83 (VHH)
VHH: HVQLVESGGGLVQPGGSLRLSCAASGRSFNSYLMGWFRQAPGKEREFVAWISGSPHDIIRYRDSVKDRFTISRDNAKNTVYLQMNSLKPVDTAVYYCAVGSLRVGSFSPDYWGQGTQVTVSS
B37: Nb90 (VHH)
VHH: HVQLVESGGGLVQAGGSLRLSCAVSGRTVSSYVMGWFRQAPGKEREFVAGIGRTGMTITADSVKGRFTISRDNAKNLVYLQMNSLKSEDTAVYWCAAGVRDFAPRIDSYDYWGQGTQVTVSS

Target: SARS-CoV-2 spike receptor-binding domain (RBD) (SARS-CoV-2, UniProt P0DTC2 319-541)
Experiment: indirect ELISA on coated RBD ('ELISA affinity')

Row | Binder | IC50 [nM]
1 | B1 | 0.2
2 | B2 | 0.77
3 | B3 | 0.92
4 | B4 | 0.92
5 | B5 | 1.25
6 | B6 | 2.17
7 | B7 | 4.82
8 | B8 | 0.47
9 | B9 | 0.37
10 | B10 | 0.57
11 | B11 | 0.53
12 | B12 | 1.04
13 | B13 | 0.48
14 | B14 | 0.67
15 | B15 | 0.38
16 | B16 | 1.49
17 | B17 | 0.66
18 | B18 | 664
19 | B19 | 25.9

Row | Binder | IC50 [nM]
20 | B20 | 1.08
21 | B21 | 2.24
22 | B22 | 2.68
23 | B23 | 138
24 | B24 | 85.7
25 | B25 | 0.84
26 | B26 | 0.45
27 | B27 | 0.33
28 | B28 | 6.11
29 | B29 | 67.1
30 | B30 | 0.17
31 | B31 | 0.39
32 | B32 | 0.61
33 | B33 | 5.09
34 | B34 | 0.57
35 | B35 | 0.86
36 | B36 | 1.51
37 | B37 | 4.03
